According to patent US20240360242A1 (KISOJI BIOTECHNOLOGY, published 2024):

What was measured:
HEK-TROP2 Δ27-44 = biological target: T1, HEK-TROP2 Δ27-44; experiment: flow cytometry, 100 nM antibody, transiently transfected HEK cells, APC anti-human Fc
T1 construct: also called TROP2 delta 27-44
T1 membrane protein on transfected HEK cells: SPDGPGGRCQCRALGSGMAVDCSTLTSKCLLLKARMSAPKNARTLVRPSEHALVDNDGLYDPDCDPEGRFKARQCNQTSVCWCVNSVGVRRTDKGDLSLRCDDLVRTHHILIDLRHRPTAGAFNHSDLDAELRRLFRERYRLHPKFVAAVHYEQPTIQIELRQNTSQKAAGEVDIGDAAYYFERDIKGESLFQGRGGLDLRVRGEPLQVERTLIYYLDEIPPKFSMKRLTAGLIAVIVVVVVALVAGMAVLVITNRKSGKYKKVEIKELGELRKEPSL
Procedure: (§1) To determine the effect of TROP2 truncations on the binding ability of anti-TROP2 sdAbs, the HEK parental cells were transiently transfected with human TROP2 mutants by lipofectamine. 24 hours after transfection, cells were collected and stained with anti-TROP2 antibodies (FIG. 13A and FIG. 13B). In brief, 1×10⁵ cells were incubated with an Fc receptor blocking antibody (1/100 dilution) for 10 minutes at room temperature. Anti-TROP2 antibodies were diluted in FACS staining buffer to 100 nM and added and incubated with cells for 30 minutes on ice. After washing three times with FACS staining buffer, APC-conjugated secondary antibodies recognizing the human Fc region (Biolegend, Cat #410712) were mixed with cells. After staining for 30 minutes, cells were washed three times, followed by resuspension into 100 μL of 7-Amino-Actinomycin D (7-AAD) solution (BD Biosciences, Cat #559925).

[1] = biological target: T2, TROP2 delta 27-56 on HEK cells (human, UniProt P09758 1-323); experiment: as above
T2 construct: Human TROP2 with residues 27-56 deleted, transiently transfected into HEK cells; also called TROP2 with 27-56 regions truncated
T2 chain: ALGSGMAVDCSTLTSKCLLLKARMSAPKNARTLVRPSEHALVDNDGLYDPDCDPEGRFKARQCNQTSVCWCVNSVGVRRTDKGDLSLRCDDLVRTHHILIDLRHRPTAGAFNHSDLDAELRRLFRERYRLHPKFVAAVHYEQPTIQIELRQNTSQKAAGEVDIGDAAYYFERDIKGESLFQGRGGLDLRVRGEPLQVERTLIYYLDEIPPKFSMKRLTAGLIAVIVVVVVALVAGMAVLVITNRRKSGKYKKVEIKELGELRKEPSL
Procedure: as §1

HEK-TROP2 Δ27-36 = biological target: T3, HEK-TROP2 Δ27-36; experiment: as above
T3 construct: also called TROP2 delta 27-36
T3 membrane protein on transfected HEK cells: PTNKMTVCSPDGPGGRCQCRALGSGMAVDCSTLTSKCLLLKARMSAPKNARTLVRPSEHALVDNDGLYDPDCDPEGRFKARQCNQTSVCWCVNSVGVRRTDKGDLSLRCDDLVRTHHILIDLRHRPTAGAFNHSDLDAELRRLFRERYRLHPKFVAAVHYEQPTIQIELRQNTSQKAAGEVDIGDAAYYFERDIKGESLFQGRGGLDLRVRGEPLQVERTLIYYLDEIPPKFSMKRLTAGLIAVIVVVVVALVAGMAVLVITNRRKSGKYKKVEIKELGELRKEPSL
Procedure: as §1

[2] = biological target: T4, recombinant human TROP2 extracellular domain (aa 1-274) comprising His tag (human, UniProt P09758 27-274); experiment: competitive ELISA on coated recombinant human TROP2, competitor 1428.6 pM His-tagged KD006, anti-His-HRP secondary Ab
T4 construct: Used here for all assays on recombinant human TROP2 (ELISA, immunoblot, SPR, crystal), although only some of them name the catalogue number; also called human recombinant TROP2; recombinant human TROP2 protein; not shown: His tag
T4 sequence: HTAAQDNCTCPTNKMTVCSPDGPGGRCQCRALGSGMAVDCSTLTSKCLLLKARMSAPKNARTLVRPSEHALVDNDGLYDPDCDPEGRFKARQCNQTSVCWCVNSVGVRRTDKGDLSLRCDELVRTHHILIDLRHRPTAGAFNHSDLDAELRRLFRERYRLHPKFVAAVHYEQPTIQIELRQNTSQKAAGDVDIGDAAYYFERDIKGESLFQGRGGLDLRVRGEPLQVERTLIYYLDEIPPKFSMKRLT
Procedure: The epitope characterization was assessed by competitive ELISA (FIG. 8 and FIG. 9). Microplates were coated with human recombinant TROP2 at 4° C. overnight. After washing, plates were blocked with blocking buffer (PBS+2% BSA), for 1 hour at room temperature. Meanwhile, the dilution for anti-TROP2 VHH sdAbs was prepared with blocking buffer making two different dilutions depending on the tag. For sdAbs with His tag, the antibody was diluted to 28571.4 pM. For sdAbs without tag, antibodies were serially diluted from 2857142.9 pM to 0.29 pM (8 dilutions, 10×). […] After washing two times, the mixed antibody contents were added into the wells and the plates were incubated for 2 hours at room temperature. The HRP-conjugated anti-6× His was diluted to 1:5000 and added to the wells after washing three times. Any unbound conjugate was removed by washing after 1 hour incubation at room temperature, and the colorimetric reaction was performed by adding the same volume of Supersignal ELISA Pico Luminol/Enhancer and SuperSignal ELISA Pico Stable Peroxide Solution and detected on SpectraMax i3x Microplate Reader. Positive and negative controls were included in each plate.

[3] = biological target: T5, recombinant human IGFBP-1 (human, UniProt P08833 26-259); experiment: ELISA
T5 construct: also called rhIGFB-1
T5 sequence (looked up): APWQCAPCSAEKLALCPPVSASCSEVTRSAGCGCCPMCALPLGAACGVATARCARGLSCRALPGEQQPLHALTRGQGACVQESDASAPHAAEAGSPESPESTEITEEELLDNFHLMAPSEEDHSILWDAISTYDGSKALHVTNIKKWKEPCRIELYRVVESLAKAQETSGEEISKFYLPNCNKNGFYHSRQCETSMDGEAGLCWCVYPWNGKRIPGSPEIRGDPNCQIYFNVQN

recombinant human EpCAM = biological target: T6, recombinant human EpCAM (human, UniProt P16422 24-265); experiment: ELISA
T6 construct: also called rhEpCAM
T6 sequence (looked up): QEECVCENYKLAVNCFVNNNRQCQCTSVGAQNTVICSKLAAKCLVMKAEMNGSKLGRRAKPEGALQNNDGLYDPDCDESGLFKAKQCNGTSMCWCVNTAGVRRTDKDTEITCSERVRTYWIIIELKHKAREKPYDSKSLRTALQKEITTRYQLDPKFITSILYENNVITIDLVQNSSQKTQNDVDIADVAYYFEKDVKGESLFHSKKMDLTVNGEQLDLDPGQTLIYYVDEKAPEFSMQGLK

binding result (HEK-TROP2 Δ27-44): binds
binding result [1]: binds
binding result (HEK-TROP2 Δ27-36): binds
IC50 (read off the curve) [2]: ~4 nM
binding result [3]: no binding
binding result (recombinant human EpCAM): no binding
B1: KD006 (antibody, human IgG1, V domains shown)
VH: QVQLQESGGGLVQAGNSLRLSCVASVRTFSTKAMGWFRQAPGKEREFTAAISESGSTYYADSVKDRFTISRDNVKNTVYLQMNSLKPEDTAVYYCGVKWYSGSFDDTRSYDYWGQGTQVTVSS
notes: also called anti-TROP2 sdAb KD006
